These results are taken from the supplement of paper PMC9170038.

The data set deals with MS2 coat protein. Kind of data set: apparent KD of MS2 coat protein; designed switch direction (-1 OFF switch, 1 ON switch): -1; higher = weaker reporter binding. In short, it runs like this:
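Designed RNA switches were transcribed on Illumina chips by stalled E. coli RNA polymerase and titrated with SNAP-549-labelled MS2 coat protein from 0.7 or 1.5 nM, doubling to 3 µM. Step length ran from 0.8–1.5 h at the lowest concentration to 10–20 min at the highest. The apparent KD is the median over clusters for each design, from curve-fitted normalised cluster fluorescence.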

[1] abbreviates: Eterna round: R95, input ligand: FMN 200 uM.
[2] abbreviates: Eterna round: R95, input ligand: microRNA oligo, concentration not stated.
Setting [3] is: Eterna round: R95, input ligand: none.
Setting [4] is: input ligand: microRNA oligo, concentration not stated.

“UAUGGUAAAGUCAGGAUAUACGUACAGAAUUCUAGGUAGAAGGGACAUGAGGAUCACCCAUGUAUGGUAGUGUU [Ex4 #43] (Eterna round: R97, puzzle: Brourd's mod of Exclusion 4)”: the “apparent KD of MS2 coat protein” value (input ligand: FMN 200 uM) was found to be 262 nM and the “apparent KD of MS2 coat protein” value (input ligand: none) was determined as 66.9 nM.
As for “CUGAGGUAGCGGUCCUAUGACAUGAGGAUCACCCAUGUACCUCGCUACGAGCUUUUUGCUCGUCUUAUAAUUCUCGG [JL Atriat mod 2] (puzzle: Sensor v3, turn-off variant 1)”, the “apparent KD of MS2 coat protein” value under setting [1] amounted to 573 nM, the “apparent KD of MS2 coat protein” value under setting [2] came out at 141 nM and the “apparent KD of MS2 coat protein” value under setting [3] was 643 nM.
Take “GAAAAGUGAGGAUAUGGUAAUGUAAGUAUGUAGUAUGUAAUCCAGAAGGCACAUGAGGAUCACCCAUGUAAAAG [Mat - Exclusion 4 - D102] (puzzle: Exclusion 4)”: the “apparent KD of MS2 coat protein” value under setting [2] was determined as 24.4 nM.
“GGGUUGGUAGGAUAUACAUGAGGAUCACCCAUGUCAUGUCGUCGGGAAAGAUCUUUCCGUAGAAGGGCCACCCG [Eternabot (L2) Solution 52] (Eterna round: R97, puzzle: Exclusion 3)”: the “apparent KD of MS2 coat protein” value is, setting by setting: (input ligand: FMN 200 uM) 97 nM; (input ligand: none) 28 nM.
On the same counts, the results for “GAAAACGCAGAGGAUAUAUCAGAUCAAAGCUGCAUAGAAGGCUGCACAUGAGGAUCACCCAUGUGGUCUUUAAA [jl-ex6-4.00 ViennaUCT mod] (Eterna round: R97, puzzle: Exclusion 6)” are 218 nM and 22 nM.
Regarding “AGUAGUGGUAUCCGAUCCUACAUGAGGAUCACCCAUGUAGCUAGACGUGCACGCGAUGCUCGUCAGACUACCAGAUG [salish99_TOv1_r3_048] (puzzle: Sensor v3, turn-off variant 1)”, the “apparent KD of MS2 coat protein” value is, setting by setting: under setting [1], 218 nM; under setting [2], 221 nM; under setting [3], 184 nM.
In the case of “AAACGACAUGAGGAUCACCCAUGUGGCCCUUAGACUCGUAUCGAGGAUAUCCAGGGCCGGGCCGUGGAGAAGGCGAAUUAAAAU [Cetele] (Eterna round: R96, puzzle: Exclusion NG 3)”, the “apparent KD of MS2 coat protein” value runs as follows: (input ligand: FMN 200 uM) 63.8 nM; under setting [4], 28.8 nM; (input ligand: none) 43.6 nM.
Take “AGCGAAUAGGUAGGAUAUGAGAAUAGAUAGAGCUCAGAAGGACCACAUGAGGAUCACCCAUGUAAAGUCUUGAGGCUGCGUGGU [Prohibition 15 - Jieux - Exclusion NG 1] (Eterna round: R96, puzzle: Exclusion NG 1)”: the “apparent KD of MS2 coat protein” value by setting is: (input ligand: FMN 200 uM) 51 nM; under setting [4], 14.4 nM; (input ligand: none) 17.5 nM.
In the case of “AGAGAGUCAGGAUAUCGAAGGUAGUGGAGAGGAGUGUGGUACGAGAAGGGACAUGAGGAUCACCCAUGUAGGAG [JR_Exclusion4)Sub008] (puzzle: Exclusion 4)”, the “apparent KD of MS2 coat protein” value worked out at 31 nM under setting [1], 35.4 nM under setting [2] and 33.2 nM under setting [3].
As to “GCAUCUCGCAAGGGUACCCACAUGAGGAUCACCCAUGUGAUGAUAAACAGGUUUCGUGCGUCCGUUUUAUCCACUUU [Eternabot (L2) Solution 18] (Eterna round: R97, puzzle: Sensor, turn-off variant 1)”, the “apparent KD of MS2 coat protein” value is, setting by setting: (input ligand: FMN 200 uM) 737 nM; (input ligand: none) 865 nM.
On the same counts, the results for “AACGGGACAGGAUAUGUCACGGAGAACAUGAGGAUCACCCAUGUGGCUUCGUGGUCUGUUGCAGAAGGGUCGAAAU [Vebedi] (Eterna round: R97, puzzle: Exclusion 5)” are 19.6 nM and 11.9 nM.
For “UGUCUUCAUAUCACAUGAGGAUCACCCAUGUUAUUCAUCUCGUAGGAUAUCGAGGUUUUUUAUUUCGAGAAGGACGUAUUGUUU [JR_ExcNG3_Sub077] (Eterna round: R96, puzzle: Exclusion NG 3)”, the “apparent KD of MS2 coat protein” value (input ligand: FMN 200 uM) came to 215 nM, the “apparent KD of MS2 coat protein” value under setting [4] was 135 nM and the “apparent KD of MS2 coat protein” value (input ligand: none) worked out at 153 nM.
With “GUGUACGUAGGAUAUGCUGGAAUCUAGCGAAGCUAGGUUCCACAUGAGGAUCACCCAUGUAGAAGGGCGUACAC [Dot plot directed A v9] (puzzle: Exclusion 2)”, the “apparent KD of MS2 coat protein” value under setting [2] was 132 nM.
Same read-out and setting: the value for “UAAUUGUGAGGAUAUCAGGUGUGCUAGCGUACUGGUACAUCUGAGAAGGCACAUGAGGAUCACCCAUGUUCCUU [Mat - Exclusion 4 - Mod of JL - D47] (puzzle: Exclusion 4)” was 13.6 nM.
Consider “GAAAAGGUAGGAUAUACGAUAAGAAAGGGUAGAGAAUAAACACAUGAGGAUCACCCAUGUAGAAGGACCAAAAG [salish99_ex2_r3_101] (puzzle: Exclusion 2)”, for which the “apparent KD of MS2 coat protein” value under setting [1] came out at 148 nM, the “apparent KD of MS2 coat protein” value under setting [2] was determined as 30 nM and the “apparent KD of MS2 coat protein” value under setting [3] was 26 nM.
As for “CAGUAUUGAGGAUAUACAUGAGGAUCACCCAUGUGUUCCAGCUAGGAAACUAGCAAAAGUAGAAGGCAGUACUG [salish99_ex3_r3_085] (puzzle: Exclusion 3)”, the “apparent KD of MS2 coat protein” value under setting [2] was found to be 21 nM.
Regarding “AGUACUAACACGAAAGUGUUAGUACUAUAAGCUUGUGUUACAUGAGGAUCACCCAUGUCCUCAUAAGCUCGUCUUGU [Mat - Sensor v3 - Turn-off var 2 - D104] (puzzle: Sensor v3, turn-off variant 2)”, the “apparent KD of MS2 coat protein” value worked out at 46.4 nM under setting [1], 48.7 nM under setting [2] and 54.4 nM under setting [3].
Take “ACUAGAUGAGGAUAUACACAUUUUAGUGUUCCUCUAGAUUAACAUGAGGAUCACCCAUGUAGAAGGCAUCAUUU [Exclusion 2 - 10] (puzzle: Exclusion 2)”: under setting [2], the “apparent KD of MS2 coat protein” value worked out at 80.8 nM.
Regarding “GCUUAACAUGUAGGAUAUGCGUGGCGAAGCUAUGCAGAAGGACAUGAGGAUCACCCAUGUUUUAGCGUCUGCGUACAGAUGCGU [JL ENG1 1.42] (Eterna round: R96, puzzle: Exclusion NG 1)”, the “apparent KD of MS2 coat protein” value is, setting by setting: (input ligand: FMN 200 uM) 178 nM; under setting [4], 19.8 nM; (input ligand: none) 22.4 nM.
For “CUAACAUGCUGGUGAUCAUACAUGAGGAUCACCCAUGUAACAAGCUUUUUGCUCGUCUUAUAAGAUCACCAGCAUGU [Stov1/9-A4] (Eterna round: R97, puzzle: Sensor, turn-off variant 1)”, the “apparent KD of MS2 coat protein” value (input ligand: FMN 200 uM) stood at 16.2 nM and the “apparent KD of MS2 coat protein” value (input ligand: none) is 15.5 nM.
For the sequence “ACAUGAGGAUCACCCAUGUGCACGUAAUGGCUCAUGUAGAGUGAGGAUAUGUGAGACGAACGAGAACAGAAGGCACAAGACAGG [Deportation 8 - Jieux - Exclusion NG 3] (Eterna round: R96, puzzle: Exclusion NG 3)”, the “apparent KD of MS2 coat protein” value by setting is: (input ligand: FMN 200 uM) 106 nM; under setting [4], 92.8 nM; (input ligand: none) 116 nM.
As to “UGCAGACGAGGAUAUAAACGAUAUAACAUGAGGAUCACCCAUGUACGAUCGAUAGAUCGUUUAGAAGGCGUCUGCA [E5/9-A2] (Eterna round: R97, puzzle: Exclusion 5)”, the “apparent KD of MS2 coat protein” value reads like this: (input ligand: FMN 200 uM) 12.8 nM; (input ligand: none) 14.5 nM.
In the same order, the values of “GCGCGAAGCUAGGAUAUGGGAGCGUCUUCGCUCCCAGAAGGAGCCACAUGAGGAUCACCCAUGUGGUGAUCCUG [eternacac ex6r4 sub14] (Eterna round: R97, puzzle: Exclusion 6)” are 17 nM and 16.5 nM.
